Tests used:
VEGF165 (293-VE) [1] = molecular target: T1, VEGF165 (293-VE) (UniProt P15692-4 27-191); assay: solution binding: VEGF165 incubated 45 min at 37 C with titrated VID, free VEGF measured by ELISA (Human VEGF DuoSet kit)
T1 construct: the UniProt canonical entry is a longer isoform; also called VEGF-A
Procedure: (§1) After incubation, free VEGF was detected using the Human VEGF DuoSet ELISA Development Kit (R&D Systems Catalog No. DY293B) according to the manufacturer's instructions. The data was analyzed by sigmoidal curve fitting using Prism 4.

VEGF165 (293-VE) [2] = molecular target: T1, VEGF165 (293-VE); assay: solution binding: about 40 pM VEGF165 incubated with the protein, free VEGF read by DuoSet ELISA
Procedure: as §1

T1 sequence (P15692 other isoform, or with tags, fused parts or gaps limits assumed): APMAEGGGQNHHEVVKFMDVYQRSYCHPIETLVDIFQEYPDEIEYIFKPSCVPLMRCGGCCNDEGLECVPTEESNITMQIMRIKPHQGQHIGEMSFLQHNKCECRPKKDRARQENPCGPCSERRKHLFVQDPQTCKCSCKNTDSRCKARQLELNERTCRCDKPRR

B1: VID (fragment of ACVP-1 wherein the VID has the Fc domain fused to its C-terminus) (Fc fusion)
chain: GRPFVEMYSEIPEIIHMTEGRELVIPCRVTSPNITVTLKKFPLDTLIPDGKRIIWDSRKGFIISNATYKEIGLLTCEATVNGHLYKTNYLTHRQTNTIIDVVLSPSHGIELSVGEKLVLNCTARTELNVGIDFNWEYPSSKHQHKKLVNRDLKTQSGSEMKKFLSTLTIDGVTRSDQGLYTCAASSGLMTKKNSTFVRVHEK
notes: not shown: human IgG1 Fc region as in ACVP-1
EC50 (VEGF165 (293-VE) [1]): 0.0731 nM | EC50 (VEGF165 (293-VE) [2]): ~0.7 nM

Source: patent US20180312819A1 (AP BIOSCIENCES, published 2018)
